Assay [1] deals with Core-binding region peptide of E-cad, AlexaFluor 488 at the C-terminus (mouse). Briefly: two-focus FCS.
In assay [2] the target is Core-binding region peptide of E-cad, AlexaFluor 488 at the N-terminus (mouse). The experiment in a line: two-focus FCS.
Assay [3] addresses E-cad construct A (cytoplasmic tail of mouse E-cadherin, FRET labels on the N-terminal segment) (mouse) (UniProt P09803). The experiment in a line: single-molecule FRET.
Assay [4] addresses E-cad construct B (cytoplasmic tail of mouse E-cadherin, FRET labels on the central segment) (mouse) (UniProt P09803). Briefly: single-molecule FRET.
The target in assay [5] is E-cad construct C (cytoplasmic tail of mouse E-cadherin, FRET labels on the C-terminal segment) (mouse) (UniProt P09803). The experiment in a line: single-molecule FRET.

This note sets out measurements from paper doi:10.1101/2021.02.03.429507.

As a reminder, the Kd is the free concentration of one partner at which half of the binding sites on the other are occupied at equilibrium, for simple one-to-one binding. A higher Kd goes with lower affinity.

“Full-length murine beta-catenin (from UniProt Q02248 1-781) (natural protein)”: the Kd was greater than 1000 nM in assay [1]; greater than 1000 nM in assay [2]; 4 nM in assay [3]; 4 nM in assay [4]; 4 nM in assay [5].
